{
  "source": "patent US11963996B2",
  "about": "“Method of treating knee pain” (ORTHOTROPHIX, Inc., priority 2018, dated 2024)",
  "origin": "cited, not measured here",
  "key": {"[1]": {"system": "human osteoblastic mesenchymal stem cells", "details": "cited from earlier work"}, "OA patients": {"system": "OA patients", "details": "human, in vivo; cited from earlier work"}, "subjects with knee OA": {"system": "subjects with knee OA", "details": "vs placebo, cited from earlier work"}},
  "data": [
    {"molecule": "rat orthologue: TPX-100 orthologue PDLLVRGDNDVPPFSGDGQHFMH (Rat/Mouse)", "values": [
      {"measurement": "Tritium-thymidine incorporation", "setting": "[1]", "value": "promote tritium-thymidine incorporation"}
    ]},
    {"molecule": "N#Cc1c(N(CC(=O)[O-])CC(=O)[O-])sc(C(=O)[O-])c1CC(=O)[O-].[Sr+2].[Sr+2]", "note": "[strontium ranelate]", "values": [
      {"measurement": "Risk of myocardial infarction", "setting": "OA patients", "value": "increase the risk of myocardial infarction"}
    ]},
    {"molecule": "FGF-18: Fibroblast Growth Factor-18, a.k.a. Sprifermin, candidate DMOAD, a putative chondrocyte growth factor (protein, UniProt O76093 28-207, looked up, sprifermin, Fibroblast Growth Factor-18, a.k.a; Sprifermin, candidate DMOAD, a putative chondrocyte growth factor) Fibroblast growth factor 18: EENVDFRIHVENQTRARDDVSRKQLRLYQLYSRTSGKHIQVLGRRISARGEDGDKYAQLLVETDTFGSQVRIKGKETEFYLCMNRKGKLVGKPDGTSKECVFIEKVLENNYTALMSAKYSGWYVGFTKKGRPRKGPKTRENQQDVHFMKRYPKGQPELQKPFKYTTVTKRSRRIRPTHPA", "values": [
      {"measurement": "Clinical benefit (WOMAC)", "setting": "subjects with knee OA; 24 months", "value": "no difference in clinical benefit was detected in any treatment group when compared with placebo"},
      {"measurement": "Clinical benefit", "setting": "subjects with knee OA; 36 months", "value": "failed to demonstrate clinical benefit compared with the placebo-treated group"},
      {"measurement": "Tibiofemoral cartilage thickness by MRI", "setting": "subjects with knee OA; three once-weekly IA injections, repeated at months 6, 12, 18, 24 months", "value": "dose-dependent increases in tibiofemoral cartilage thickness compared with the placebo group"}
    ]}
  ]
}
